Experimental findings from patent US20080044425A1, “POLYPEPTIDES HAVING PHOSPHOLIPASE A2 ACTIVITY” (KYOWA HAKKO KOGYO CO., LTD., priority 2000, published 2008) are described below.

This experiment can be described thus: Measurement of PLA2 activity in the soluble fraction of insect cells (Sf9) expressing the human-derived polypeptide. The class given is biochemical. The following applies: 4 mmol/l calcium chloride, 37° C., 2 hours, control: pVL1393 vector virus, FIG. 10. Here is the method:
The supernatant containing the virus recovered in (2) above (2 ml) was added to 28 ml of 1.5×10^6/ml suspending Sf9 cells, and the cells were cultured at 27° C. for 4 days in the suspending state. The cells were recovered by centrifugation at 800 rpm for 5 minutes and washed with phosphate-buffered saline (PBS). The resulting cells were suspended in a buffer consisting of 25 mmol/l Tris-HCl (pH 7.5), 140 mmol/l sodium chloride, 5 mmol/l potassium chloride, 2 mmol/l EDTA and 1× complete, EDTA-free (Boehringer Mannheim) and disrupted on ice using a sonicator. The extract was centrifuged at 15,000 rpm for 15 minutes, and the supernatant was used for the measurement of PLA2 activity.
One hundred μl of a reaction solution [100 mmol/l Tris-HCl (pH 7.5), 4 mmol/l calcium chloride, 1 mg/ml bovine serum albumin (substantially fatty acid-free, Sigma) and 8 μmol/l Triton X-100] containing 1-palmitoyl-2-[1-^14C]arachidonyl-phosphatidylcholine (48 mCi/mmol, Daiichi Kagaku Yakuhin) (2 μmol/l) and the supernatant obtained above was incubated at 37° C. for 2 hours, followed by the addition of Dole reagent (containing 2-propanol, heptane and sulfuric acid at a ratio of 78:20:2) to stop the reaction. To the reaction mixture were further added 0.3 ml of heptane and 0.2 ml of water, and mixing was effected by rotation. […] The amount of the polypeptide was determined using the Bio Rad Protein Assay method. […]

B1: human-derived polypeptide of the present invention: novel human cytoplasmic phospholipase A2 polypeptide having the amino acid sequence shown in SEQ ID NO: 1, Flag-tagged, expressed in insect cells (protein, listed as Homo sapiens)
chain: MLWALWPRWLADKMLPLLGAVLLQKREKRGPLWRHWRRETYPYYDLQVKVLRATNIRGTDLLSKADCYVQLWLPTASPSPAQTRIVANCSDPEWNETFHYQIHGAVKNVLELTLYDKDILGSDQLSLLLFDLRSLKCGQPHKHTFPLNHQDSQELQVEFVLEKSQVPASEVITNGVLVAHPCLRIQGTLRGDGTAPREEYGSGQLQLAVPGAYEKPQLLPLQPPTEPGLPPTFTFHVNPVLSSRLHVELMELLAAVQSGPSTELEAQTSKLGEGGILLSSLPLGQEEQCSVALGEGQEVALSMKVEMSSGDLDLRLGFDLSDGEQEFLDRRKQVVSKALQQVLGLSEALDSGQVPVVAVLGSGGGTRAMSSLYGSLAGLQELGLLDTVTYLSGVSGSTWCISTLYRDPAWSQVALQGPIERAQVHVCSSKMGALSTERLQYYTQELGVRERSGHSVSLIDLWGLLVEYLLYQEENPAKLSDQQEAVRQGQNPYPIYTSVNVRTNLSGEDFAEWCEFTPYEVGFPKYGAYVPTELFGSELFMGRLLQLQPEPRICYLQGMWGSAFATSLDEIFLKTAGSGLSFLEWYRGSVNITDDCQKPQLHNPSRLRTRLLTPQGPFSQAVLDIFTSRFTSAQSFNFTRGLCLHKDYVAGREFVAWKDTHPDAFPNQLTPMRDCLYLVDGGFAINSPFPLALLPQRAVDLILSFDYSLEAPFEVLKMTEKYCLDRGIPFPSIEVGPEDVEEARECYLFAKAEDPRSPIVLHFPLVNRTFRTHLAPGVERQTAEEKAFGDFVINRPDTPYGMMNFTYEPQDFYRLVALSRYNVLNNVETLKCALQLALDRHQARERAGA
modifications: Flag tag
With B1, the “PLA2 activity that hydrolyzes the ester bond at the sn-2-position in 1-palmitoyl-2-arachidonyl-phosphatidylcholine” value is “has PLA2 activity”.
